The source of these data is PMC4006906 (PLoS Pathogens, 2014).

The target in this assay is H5VN04 trimeric HA (recombinant hemagglutinin) (Influenza A virus A/Vietnam/1203/2004 …, strain). Nature of the assay: SPR. To be noted: both partners purified.

B1: CR6261 scFv (wild type) (scFv, V domains shown)
VH: EVQLVESGAEVKKPGSSVKVSCKASGGPFRSYAISWVRQAPGQGPEWMGGIIPIFGTTKYAPKFQGRVTITADDFAGTVYMELSSLRSEDTAMYYCAKHMGYQVRETMDVWGKGTTVTVSS
VL: QSVLTQPPSVSAAPGQKVTISCSGSSSNIGNDYVSWYQQLPGTAPKLLIYDNNKRPSGIPDRFSGSKSGTSATLGITGLQTGDEANYYCATWDRRPTAYVVFGGGTKLTVL
Regarding B1, the binding result is “binds”.
